Patent publication US20030171557

What was measured:
[1] = target: GST protein [GST: P08515]
[2] = target: GST-IkBα protein [GST: P08515]
IkBα C-terminal peptide = target: T1, IkBα C-terminal peptide
T1 chain: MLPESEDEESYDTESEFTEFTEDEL

Sequence of GST protein [GST: P08515] (P08515 whole entry): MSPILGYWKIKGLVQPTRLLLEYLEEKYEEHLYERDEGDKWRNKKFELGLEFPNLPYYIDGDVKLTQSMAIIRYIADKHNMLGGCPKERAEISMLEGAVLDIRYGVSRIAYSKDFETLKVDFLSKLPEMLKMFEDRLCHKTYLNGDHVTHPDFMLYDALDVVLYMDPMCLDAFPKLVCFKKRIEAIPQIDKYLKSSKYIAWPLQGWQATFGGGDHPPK

B1: GST fusion protein with wild VRK1 protein (protein)
chain: MPRVKAAQAGRQSSAKRHLAEQFAVGEIITDMAKKEWKVGLPIGQGGFGCIYLADMNSSESVGSDAPCVVKVEPSDNGPLFTELKFYQRAAKPEQIQKWIRTRKLKYLGVPKYWGSGLHDKNGKSYRFMIMDRFGSDLQKIYEANAKRFSRKTVLQLSLRILDILEYIHEHEYVHGDIKASNLLLNYKNPDQVYLVDYGLAYRYCPEGVHKEYKEDPKRCHDGTIEFTSIDAHNGVAPSRRGDLEILGYCMIQWLTGHLPWEDNLKDPKYVRDSKIRYRENIASLMDKCFPEKNKPGEIAKYMETVKLLDYTEKPLYENLRDILLQGLKAIGSKDDGKLDLSVVENGGLKAKTITKKRKKEIEESKEPGVEDTEWSNTQTEEAIQTRSRTRKRVQK
kinase assay, phosphorylation of substrate ([γ-32P]-ATP, SDS-PAGE, 10 mM Mg) [1]: GST protein was not phosphorylated by VRK1 | kinase assay with casein as substrate in the presence of Mg, Mn, Zn or Ca at 2 mM or 10 mM (casein (Sigma)): VRK1 exhibits phosphorylation activity in the presence of all divalent cations except for Zn ... especially strong activity in the presence of Mn | kinase assay, phosphorylation of substrate ([γ-32P]-ATP, SDS-PAGE, 10 mM Mg) (casein (Sigma)): wild VRK1 protein phosphorylates casein and GST-IkBα | kinase assay, phosphorylation of substrate ([γ-32P]-ATP, SDS-PAGE, 10 mM Mg) [2]: wild VRK1 protein phosphorylates casein and GST-IkBα | kinase assay, phosphorylation of substrate ([γ-32P]-ATP, SDS-PAGE) (IkBα C-terminal peptide): Arrows indicate ... phosphorylated IkBα C-terminal peptide (“P”)
